# Reference: paper PMC8685691, “A serum-stable RNA aptamer specific for SARS-CoV-2 neutralizes viral entry”
# Tests used:
# [1] = biological target: SARS-CoV-2 spike RBD, C-tagged (SARS-CoV-2 (WT), UniProt P0DTC2 319-532); experiment: BLI competition
# [2] = biological target: T1, SARS-CoV-2 spike RBD, WT, His-tagged (SARS-CoV-2 (WT), UniProt P0DTC2 319-532); experiment: BLI competition
# [3] = biological target: T1, SARS-CoV-2 spike RBD, WT, His-tagged; experiment: BLI
# [4] = biological target: T1, SARS-CoV-2 spike RBD, WT, His-tagged; experiment: FIDA
Binder,binding result [1],IC50 [2] [nM],also measured
"RBD-PB6-Tinv (structured_RNA, 2'-fluoro pyrimidines) RNA: GGCGACAUUUGUAAUAGGACGACCGAUACUUCCGUGUCCUCAGAGGUUGCCA",no binding,,
"GGUUUGUAAUUCCUGGACCGAUACUUCCGUCAGGACAGACCA (structured_RNA, 2'-fluoro pyrimidines) [RBD-PB6-Tb]",no binding,,
"GGUCCUGGACCGAUACUUCCGUCAGGACCA (structured_RNA, 2'-fluoro pyrimidines) [RBD-PB6-Tc]",no binding,,
"RBD-PB6-Ta (structured_RNA, 2'-fluoro pyrimidines) RNA: GGCGACAUUUGUAAUUCCUGGACCGAUACUUCCGUCAGGACAGAGGUUGCCA",,200,
"RBD-PB6 (structured_RNA, 2'-fluoro pyrimidines) RNA: GGGGCCACCAACGACAUUUGUAAUUCCUGGACCGAUACUUCCGUCAGGACAGAGGUUGAUAUAAAUAGUGCCCAUGGAUCC",,~250,Kd [3]: ~18 nM; Kd [4]: 129 nM
"GGCGACAUUUGUAAUUCCUGGAUCAGGACAGAGGUUGCCA (structured_RNA, 2'-fluoro pyrimidines) [RBD-PB6-Td]",no binding,,
